Data as given in patent US20230233512A1 (UNIVERSITY OF SOUTH CAROLINA, published 2023).
Substitutions are numbered along the chain they refer to. Numbers in names are those of the source.

T1: PACT C213F (recessive DYT16 mutant), O75569
T1 chain: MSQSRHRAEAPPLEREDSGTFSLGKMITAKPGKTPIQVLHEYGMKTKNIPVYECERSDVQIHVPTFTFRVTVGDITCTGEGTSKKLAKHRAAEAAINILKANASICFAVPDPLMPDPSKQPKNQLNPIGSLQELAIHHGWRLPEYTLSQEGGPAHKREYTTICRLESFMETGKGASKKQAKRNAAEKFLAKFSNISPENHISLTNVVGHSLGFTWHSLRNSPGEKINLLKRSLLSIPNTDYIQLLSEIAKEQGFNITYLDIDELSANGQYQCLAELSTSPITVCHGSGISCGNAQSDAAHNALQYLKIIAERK

T2: PACT P222L (recessive DYT16 mutant), O75569
T2 chain: T1 chain with F213C, P222L

T3: PACT C77S (recessive DYT16 mutant), O75569
T3 chain: T1 chain with C77S, F213C

T4: PACT N102S (dominant DYT16 mutant), O75569
T4 chain: T1 chain with N102S, F213C

T5: PACT T34S (dominant DYT16 mutant), O75569
T5 chain: T1 chain with T34S, F213C

T6: PACT C213R (recessive DYT16 mutant), O75569
T6 chain: T1 chain with F213R

T7: wild type (wt) PACT, O75569
T7 chain: T1 chain with F213C

B1: PKR (protein)
chain: MAGDLSAGFFMEELNTYRQKQGVVLKYQELPNSGPPHDRRFTFQVIIDGREFPEGEGRSKKEAKNAAAKLAVEILNKEKKAVSPLLLTTTNSSEGLSMGNYIGLINRIAQKKRLTVNYEQCASGVHGPEGFHYKCKMGQKEYSIGTGSTKQEAKQLAAKLAYLQILSEETSVKSDYLSSGSFATTCESQSNSLVTSTLASESSSEGDFSADTSEINSNSDSLNSSSLLMNGLRNNQRKAKRSLAPRFDLPDMKETKYTVDKRFGMDFKEIELIGSGGFGQVFKAKHRIDGKTYVIKRVKYNNEKAEREVKALAKLDHVNIVHYNGCWDGFDYDPETSDDSLESSDYDPENSKNSSRSKTKCLFIQMEFCDKGTLEQWIEKRRGEKLDKVLALELFEQITKGVDYIHSKKLIHRDLKPSNIFLVDTKQVKIGDFGLVTSLKNDGKRTRSKGTLRYMSPEQISSQDYGKEVDLYALGLILAELLHVCDTAFETSKFFTDLRDGIISDIFDKKEKTLLQKLLSKKPEDRPNTSEILRTLTVWKKSPEKNERHTC
B2: wild type (wt) PACT (other, UniProt O75569 1-313, looked up)
chain: T1 chain with F213C
notes: also called Myc-PACT; flag-PACT
B3: PACT C213F (recessive DYT16 mutant) (other, UniProt O75569 1-313, looked up)
chain: T1 chain
notes: N-terminal Myc or FLAG tag in co-IP; GAL4-DBD or VP16-AD fusion in mammalian two-hybrid; histidine tag in PKR activity assay
B4: PACT C213R (recessive DYT16 mutant) (other, UniProt O75569 1-313, looked up)
chain: T1 chain with F213R
notes: as for B3
B5: PACT C77S (recessive DYT16 mutant) (other, UniProt O75569 1-313, looked up)
chain: T1 chain with C77S, F213C
notes: as for B3

Legend:
[1] = target: T1, PACT C213F (recessive DYT16 mutant), …
[2] = target: T2, PACT P222L (recessive DYT16 mutant), …
[3] = target: T3, PACT C77S (recessive DYT16 mutant), …
[4] = target: T4, PACT N102S (dominant DYT16 mutant), …
[5] = target: T5, PACT T34S (dominant DYT16 mutant), …
[6] = target: T6, PACT C213R (recessive DYT16 mutant), …
[7] = target: T7, wild type (wt) PACT, O75569
[8] = target: T8, flag-tagged dominant negative PKR mutant, K296R (UniProt P19525 1-551); assay: co-IP in HeLa cells: Myc-PACT on Myc-agarose, flag-PKR K296R detected by anti-flag blot
T8 construct: Used in the co-IP assays in HeLa cells; also called flag-PKR; flag-tagged K296R
Protocol: (§1) In all cases HeLa M cells were seeded at 20% confluency in 6-well dishes 24 hours prior to co-transfecting 250 ng of each flag- and/or Myc-tagged constructs using Effectene® reagent (Qiagen). Cells were harvested 24 hours post transfection and harvested in IP buffer. Whole cell extract was then immunoprecipitated overnight at 4° C. on a rotating wheel with either flag-agarose (Sigma) or Myc-agarose beads (Thermo Scientific). Immunoprecipitates were then washed 3-5 times in IP buffer followed by resuspension and boiling for 5 minutes in 1×Laemmle buffer. Samples were then resolved on 10% SDS-PAGE denaturing gels and transferred to PVDF membranes. […] The cell lysates were immunoprecipitated in 15 μL of Myc-agarose beads and resolved on 10% SDS-PAGE denaturing gels and transferred to PVDF membranes.
The immunoprecipitates were analyzed by western blot analysis with anti-flag (FIG. 4A) or anti-Myc (FIG. 4B) antibodies (co-IP panel) and with anti-Myc (FIG. 4A) or anti-flag (B) for IP panels.

[9] = target: B5; assay: mammalian two-hybrid, luciferase reporter; PACT proteins as GAL4-DBD bait and VP16-AD prey
[10] = target: B3; assay: co-IP in HeLa cells: flag-PACT on flag-agarose, Myc-PACT detected by anti-Myc blot
Protocol: as §1

Binder: B1
PKR autophosphorylation, in vitro PKR kinase activity assay [1]: In all cases, recessive mutations demonstrated a slightly increased capacity to activate PKR ... as compared to wt PACT
PKR autophosphorylation, in vitro PKR kinase activity assay [2]: In all cases, recessive mutations demonstrated a slightly increased capacity to activate PKR ... as compared to wt PACT
PKR autophosphorylation, in vitro PKR kinase activity assay [3]: In all cases, recessive mutations demonstrated a slightly increased capacity to activate PKR ... as compared to wt PACT
PKR autophosphorylation, in vitro PKR kinase activity assay [4]: The dominant mutants (lower panel) also showed enhanced ability to activate PKR at 400 µg
PKR autophosphorylation, in vitro PKR kinase activity assay [5]: The dominant mutants (lower panel) also showed enhanced ability to activate PKR at 400 µg
PKR autophosphorylation, in vitro PKR kinase activity assay [6]: In all cases, recessive mutations demonstrated a slightly increased capacity to activate PKR ... as compared to wt PACT
PKR autophosphorylation, in vitro PKR kinase activity assay [7]: When the purified recombinant PACT proteins were added, a dose dependent increase (left: 400 µg, right: 4.0 ng) in activated autophosphorylated PKR was observed

Binder: B2
binding result [8]: binds

Binder: B3
binding result [8]: binds
fold higher interaction than wt PACT-wt PACT [9]: ~9 fold

Binder: B4
binding result [8]: binds

Binder: B5
binding result [10]: binds
binding result [8]: binds
